Reference: article PMC6107761

Assays:
Settings in all cases: remark: other sources report otherwise
[1] = target: T1, human wild type calcium and integrin binding protein 2 (CIB2) (human), O75838; test: native gel or EMSA; Ferguson plot: non-denaturing continuous gels at 10, 12, 15% acrylamide, BSA as standard; 20 μM CIB2 with EGTA, Mg2+ or Ca2+ + Mg2+, 1 mM DTT, room temperature
T1 chain: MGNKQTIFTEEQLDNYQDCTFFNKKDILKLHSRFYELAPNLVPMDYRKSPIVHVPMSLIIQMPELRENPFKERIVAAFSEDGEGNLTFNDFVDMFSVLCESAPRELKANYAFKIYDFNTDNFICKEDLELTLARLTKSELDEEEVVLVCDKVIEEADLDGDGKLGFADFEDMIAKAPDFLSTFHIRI

[2] = target: T1, human wild type calcium and integrin …; test: dynamic light scattering; Zetasizer Nano-S, 37°C; samples immediately after SEC in 20 mM Tris-HCl pH 7.5, 150 mM KCl, 1 mM DTT with 3 mM EGTA or 2 mM EGTA + 3 mM Mg2+ or 3 mM Mg2+ + 2 mM Ca2+
[3] = target: T1, human wild type calcium and integrin …; test: SEC; analytical SEC, Superose 12 10/300GL; 20 mM Tris pH 7.5, 150 mM KCl, 1 mM DTT with 3 mM EGTA or 2 mM EGTA + 3 mM Mg2+ or 3 mM Mg2+ + 2 mM Ca2+; WT 100 μM, E64D 70 μM; MW from a calibration plot

Measured: stoichiometry N

B1: human wild type calcium and integrin binding protein 2 (CIB2), O75838-1 1-187 (natural protein)
chain: T1 chain
2: all assays above
